For the experiment, the target named is T1, GST-RPA1a (Arabidopsis thaliana, UniProt Q9SKI4 1-640).
T1 sequence (looked up): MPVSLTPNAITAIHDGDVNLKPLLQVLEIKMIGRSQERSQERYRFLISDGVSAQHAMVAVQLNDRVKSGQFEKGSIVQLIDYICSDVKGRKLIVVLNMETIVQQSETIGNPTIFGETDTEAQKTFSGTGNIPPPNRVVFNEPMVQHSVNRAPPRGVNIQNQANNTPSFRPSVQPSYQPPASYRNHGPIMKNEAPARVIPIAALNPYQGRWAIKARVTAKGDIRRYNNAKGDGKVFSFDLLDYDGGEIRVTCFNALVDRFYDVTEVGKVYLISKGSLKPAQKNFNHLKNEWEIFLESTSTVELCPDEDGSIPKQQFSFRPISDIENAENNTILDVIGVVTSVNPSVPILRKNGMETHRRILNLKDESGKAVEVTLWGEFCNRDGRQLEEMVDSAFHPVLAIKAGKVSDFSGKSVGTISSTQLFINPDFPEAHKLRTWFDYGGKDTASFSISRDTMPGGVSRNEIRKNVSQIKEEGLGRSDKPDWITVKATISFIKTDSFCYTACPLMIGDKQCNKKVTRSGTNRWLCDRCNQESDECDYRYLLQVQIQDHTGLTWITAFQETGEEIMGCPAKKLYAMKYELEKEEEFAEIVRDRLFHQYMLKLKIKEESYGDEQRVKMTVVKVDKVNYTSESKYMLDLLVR
The experiment can be described thus: pull-down.

B1: His-Sumo-HEI10 (natural protein, Arabidopsis thaliana, UniProt F4HRI2 1-304, looked up)
chain: MRCNACWRDLEGRAISTTCGHLLCTEDASKILSNDGACPICDQVLSKSLMKPVDINPNEEWINMAMAGISPQILMKSAYRSVMFYIAQRDLEMQYKMNRVVAQCRQKCEGMQAKFSEKMEQVHTAYQKMGKRCQMMEQEVENLTKDKQELQEKFSEKSRQKRKLDEMYDQLRSEYESVKRTAIQPANNFYPRHQEPDFFSNPAVNMMENRETIRKDRSFFSPATPGPKDEIWPARQNSSNSGPFDISTDSPAIPSDLGNRRAGRGHPVYGGGGTANPQSTLRNLILSPIKRSQLSRSRPQLFTL
Turning to B1, the binding result is listed as “binds”.

The values above are taken from PMC10756261 (Proceedings of the National Academy of Sciences of the …, 2023).
